Assay results as given in PMC6658013 (PLoS Pathogens, 2019).

Molecular target: T1, prefusion-stabilized RSV F (DS-Cav1), subtype B (strain B9320), with C-terminal His tag and Strep-tag II … (human respiratory syncytial virus B, …, UniProt Q6V2E7, stabilised)
T1 construct: copies: 3 + 3
Assay: SPR
Details: both partners purified

B1: RSD5-WT Fab (parental RSD5) (Fab, V domains shown)
VH: QVQLVESGGGVVQPGRPLRLSCAASGFAFNNFALHWVRQAPGKGPEWLAAVSYDGTSPYYAESVRARFSISRDNSKKTFYLQLDSLRPEDTAVYYCARGLGSGSYSWIGYFYAMDVWGRGTTVTVSS
VL: QSALTQPASVSGSPGQSITISCTGTSSDVGGYVYVAWYQQHPGTAPKLIIYDVSDRPSGVSNRFSGSKSGNTASLTISGLQAEDDADYYCISYTDRNTVVFGGGTKLTVL
binding result: binds
